This is an account of results in US20060062793A1 (published 2006).

The target of experiment [1] is T1, prostate specific membrane antigen (PSMA) on LNCaP cells (human, UniProt Q04609 1-750).
T1 construct: whole, on cells; Used for intact LNCaP cells, LNCaP membrane preparations and LNCaP tumour or prostate tissue sections; also called human PSMA; LNCap membrane preparation
Description: not described.

For experiment [2], the target named is T1, prostate specific membrane antigen …. The experiment can be described thus: ELISA on plates coated with LNCaP membrane preparation. A general note: In an ELISA, binding on a coated surface is turned into a signal by an enzyme label.
Experiment [3] shares this target. Description: ELISA on LNCaP membrane preparation, purified antibody, reference J415 chimeric antibody.

Positions count from the first letter of the chain named.

T1 sequence (Q04609 whole entry): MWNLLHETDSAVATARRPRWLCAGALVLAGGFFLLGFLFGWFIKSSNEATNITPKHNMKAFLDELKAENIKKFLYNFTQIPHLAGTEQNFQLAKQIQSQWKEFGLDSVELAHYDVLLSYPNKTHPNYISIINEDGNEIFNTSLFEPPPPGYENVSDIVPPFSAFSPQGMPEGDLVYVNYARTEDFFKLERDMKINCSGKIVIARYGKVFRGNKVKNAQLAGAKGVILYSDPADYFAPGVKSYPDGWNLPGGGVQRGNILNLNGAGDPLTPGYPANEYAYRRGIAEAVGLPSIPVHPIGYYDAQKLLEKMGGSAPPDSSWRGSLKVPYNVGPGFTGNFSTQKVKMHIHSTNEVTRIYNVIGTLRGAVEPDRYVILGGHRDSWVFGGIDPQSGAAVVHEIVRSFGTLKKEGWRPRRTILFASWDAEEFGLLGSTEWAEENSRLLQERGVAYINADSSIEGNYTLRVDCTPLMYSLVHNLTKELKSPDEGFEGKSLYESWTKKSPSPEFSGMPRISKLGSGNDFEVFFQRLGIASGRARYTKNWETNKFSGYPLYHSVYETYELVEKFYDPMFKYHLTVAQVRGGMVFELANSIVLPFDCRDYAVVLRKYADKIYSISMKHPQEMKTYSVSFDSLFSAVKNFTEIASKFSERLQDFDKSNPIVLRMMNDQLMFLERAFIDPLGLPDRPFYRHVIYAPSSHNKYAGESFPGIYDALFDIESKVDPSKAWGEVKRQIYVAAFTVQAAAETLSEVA

B1: murine E99 monoclonal antibody (antibody, mouse IgG3, V domains shown)
VH: QVQLKESGPGLVASSQSLSITCTVSGFSLTAYGINWVRQPPGKGLEWLGVIWPDGNTDYNSTLKSRLNIFKDNSKNQVFLKMSSFQTDDTARYFCARDSYGNFKRGWFDFWGQGTTLTVSS
VL: NIVMTQSQKFMSTSPGDRVRVTCKASQNVGSDVAWYQAKPGQSPRILIYSTSYRYSGVPDRFTAYGSGTDFTLTITNVQSEDLTEYFCQQYNSYPLTFGAGTKLELK
As for B1, in experiment [1], the binding result is reported as “binds”.

B2: murine J533 monoclonal antibody (antibody, mouse IgG1, V domains shown)
VH: EVQLQQSGPELVKPGASVKMSCKASGYTFTGYVMHWVKQKPGQVLEWIGYINPYNDVTRYNGKFKGKATLTSDKYSSTAYMELSGLTSEDSAVYYCARGENWYYFDSWGRGATLTVSS
VL: DIVLTQSPASLAVSLGQRATISCRASESIDSYDNTFMHWYQQKPGQPPNLLIFRASILESGIPARFSGSGSGTDFTLTIYPVEADDVATYYCHQSIEDPYTFGGGTKLEIK
notes: Mouse IgG1 kappa, hybridoma ATCC HB-12127
For B2, in experiment [1], the binding result was “binds”.

B3: deimmunized J415 antibody, heavy chain version 4 with light chain version 5 (antibody, human IgG1, V domains shown)
VH: EVKLEESGGGLVQPGGSMKISCVASGFTFSNYWMNWVRQSPEKGLEWVAEIRSQSNNFATHYAESVKGRVIISRDDSKSSVYLQMNSLRAEDTAVYYCTRRWNNFWGQGTTVTVSS
VL: NIVMTQFPKSMSASAGERMTLTCKASENVGTYVSWYQQKPTQSPKMLIYGASNRFTGVPDRFSGSGSGTDFILTISSVQAEDLVDYYCGQSYTFPYTFGGGTKLEMK
notes: also called DIVH4/DIVK5; J415DIVH4/J415DIVK5
As to B3, the binding result in experiment [2] is “binds”.

B4: deimmunized J415 antibody, heavy chain version 2 with light chain version 5 (antibody, human IgG1, V domains shown)
VH: B3 VH with S40T, E50L
VL: B3 VL
notes: also called DIVH2/DIVK5; J415DIVH2 with DIVK5
As for B4, in experiment [3], the “fold less binding than the chimeric antibody” value was 2 fold.

B5: deimmunized J415 antibody, heavy chain version 1 with light chain version 5 (antibody, human IgG1, V domains shown)
VH: B3 VH with V23K, S40T, E50L
VL: B3 VL
notes: also called DIVH1/DIVK5; J415DIVH1 with DIVK5
Regarding B5, the “fold less binding than the chimeric antibody” value in experiment [3] was found to be 2 fold.

B6: murine J415 monoclonal antibody (antibody, mouse IgG1, V domains shown)
VH: B3 VH with I20L, S87N, A94G, V95I, V112L
VL: B3 VL with A13I, A15V, M19V, T41E, S63T, G68A, A80T
notes: Mouse IgG1 kappa, hybridoma ATCC HB-12109
As to B6, the binding result in experiment [1] was “binds”.

B7: J415 chimeric antibody (antibody, V domains shown)
VH: B3 VH with I20L, S87N, A94G, V95I, V112L
VL: B3 VL with A13I, A15V, M19V, T41E, S63T, G68A, A80T
notes: also called the chimeric
In the case of B7, the binding result in experiment [2] is “binds”.
